Laboratory results taken from paper PMC3012607, “From an electrophoretic mobility shift assay to isolated transcription factors: a fast genomic-proteomic approach”.

T1: 2488prp DBD (Xpp1 candidate) (Hypocrea jecorina (Trichoderma reesei), UniProt G0RQ24 395-492)
T1 sequence: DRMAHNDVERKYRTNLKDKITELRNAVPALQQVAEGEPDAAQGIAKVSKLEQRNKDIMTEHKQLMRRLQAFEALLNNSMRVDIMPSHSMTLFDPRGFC

T2: 2488prp (Xpp1 candidate) (Hypocrea jecorina (Trichoderma reesei), UniProt G0RQ24 1-492)
T2 sequence: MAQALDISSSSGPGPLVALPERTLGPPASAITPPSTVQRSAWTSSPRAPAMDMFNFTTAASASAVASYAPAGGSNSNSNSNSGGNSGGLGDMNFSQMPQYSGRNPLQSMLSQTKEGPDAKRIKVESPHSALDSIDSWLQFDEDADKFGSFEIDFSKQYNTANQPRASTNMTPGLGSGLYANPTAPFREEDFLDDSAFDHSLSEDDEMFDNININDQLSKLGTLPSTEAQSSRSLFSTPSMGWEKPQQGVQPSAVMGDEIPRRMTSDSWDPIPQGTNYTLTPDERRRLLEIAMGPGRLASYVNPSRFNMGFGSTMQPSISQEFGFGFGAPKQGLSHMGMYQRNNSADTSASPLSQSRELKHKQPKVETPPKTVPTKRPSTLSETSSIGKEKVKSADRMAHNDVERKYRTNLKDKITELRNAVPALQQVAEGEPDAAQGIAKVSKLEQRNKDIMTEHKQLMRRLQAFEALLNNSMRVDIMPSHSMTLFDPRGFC

B1: Lpxyn2 (dsDNA)
DNA 1: TGATGAAAGGAGAACAACTTCTAGACTGGGTAAATTGGTCAATGGCCAGCCGCTC
DNA 2: GAGCGGCTGGCCATTGACCAATTTACCCAGTCTAGAAGTTGTTCTCCTTTCATCA
B2: Lpxyn2 M (dsDNA)
DNA 1: TGATGAAAGGAGAACAACGGAGAGACTGGGTAAATTGGTCAATGGCCAGCCGCTC
DNA 2: GAGCGGCTGGCCATTGACCAATTTACCCAGTCTCTCCGTTGTTCTCCTTTCATCA

Tests used:
[1] = target: T1, 2488prp DBD (Xpp1 candidate); assay: EMSA; EMSA: 100 ng DBD or 60 ng IVT protein with 15 ng FAM probe, 15 min on ice, binding buffer per cited ref [41]; pull-down binding mix: 200 mM KCl, 200 ng/uL poly(dIdC), 200 ng/uL CKT067/CKT068, 8 mM spermidine, on ice; conditions: protein: recombinant; tags: GST removed by thrombin; chain copies: 2; label: 5'-FAM on strand 1; blunt
2488prp (Xpp1 candidate) = target: T2, 2488prp (Xpp1 candidate); assay: as above; conditions: protein: ivt; chain copies: 2; label: 5'-FAM on strand 1; blunt

Binder	binding result [1]	binding result (2488prp (Xpp1 candidate))
B1	binds	binds
B2	no binding	no binding
